The source of these data is the RNAGym collection of RNA variant scans (doi:10.7554/elife.80360).

To fix the notation:
B1: HDV Ribozyme (parent)
chain: GGCCGGCAUGGUCCCAGCCUCCUCGCUGGCGCCGGCUGGGCAACAUUCCGAGGGGACCGUCCCCUCGGUAAUGGCGAAUGGGACCCA

The data set covers variants of B1. The data set can be described thus: self-cleavage, relative activity (ratio to wild type); higher = more cleavage; co-transcriptional.
With GGCCGGCAUGGUGCCAGCCUCCUCGCUGGCGCCGGCUGGGCAACAUUCCGAGGGGACCGUCCCCUCUGUAAUGGCGAAUGGGACCCA, the self-cleavage worked out at 0.101.
In the case of GCCCGGCAUGGUCCCAGCCUCCUCGCUGGCGCCGGCUGGGCAACAUUCCGAGGGGACCGUCCCCUUGGUAAUGGCGAAUGGGACCCA it was 0.0373; in that of GGCCGGCAUGGUCCCAGGCUCCUCGCUGGCGCCGGCUGGGCAACAUUCCGAGGGGAUCGUCCCCUCGGUAAUGGCGAAUGGGACCCA, 0.237.
In the case of GGCCGGCAUGGUCCCAGCCUCCUCUCUGGCGCCGGCUGGGCAAUAUUCCGAGGGGACCGUCCCCUCGGUAAUGGCGAAUGGGACCCA it was 0.119; in that of GGCCGGCAUGGUCCCAGACUCCUCGCUGGCGCCGGCUGGGCAACAUUCCGAAGGGACCGUCCCCUCGGUAAUGGCGAAUGGGACCCA, 0.196; in that of GGCCGACAUGGUCCCAGCCUCCUCGCUGGCGCCGGCUGGGCAACAUUCCGAGGGGACCGUCCCCUCGGUAAUGGCGAAUGGAACCCA, 0.252.
With GGCCGGCAUGGUCCCAGCCUCCUCGCUGGCGCCGGCUGGGCAACAUUCCGAGGGGACCGUCCCCUCCGGAAUGGCGAAUGGGACCCA, the self-cleavage was 0.943.
In the case of GGCCGGCAUGGUCCCAGGCUCCUCGCUGGCACCGGCUGGGCAACAUUCCGAGGGGACCGUCCCCUCGGUAAUGGCGAAUGGGACCCA it was 0.0811.
The figure for GGCCGGCAUGGGCCCAGCCUCCUCGCUGGGGCCGGCUGGGCAACAUUCCGAGGGGACCGUCCCCUCGGUAAUGGCGAAUGGGACCCA is 0; for GGCCGGCAUGGUCCCAGCCUCCUCGCUGGCGCCAGCUGGUCAACAUUCCGAGGGGACCGUCCCCUCGGUAAUGGCGAAUGGGACCCA it is 0.0685; for GGCCGGCAUGGUCCCAGCCUCCUAGCUGGCGCCGGCUGGGCAACAUUCCGAGGGUACCGUCCCCUCGGUAAUGGCGAAUGGGACCCA it is 0.908.
In the case of GGCCGGUAUGGUCCCAGCCUCCUCGCUGGCGCCGGCUGGGCAACAUUCCGAGGGGACCGUCCCCUCGGUAAUGGCGAAUGGGACCCU it was 0.938; in that of GGCCGGCAUGCUCCCAGCCUCCUCGCUGGCGGCGGCUGGGCAACAUUCCGAGGGGACCGUCCCCUCGGUAAUGGCGAAUGGGACCCA, 0.0875; in that of GGCCGGCAUGUUCCCAGCCUCCUCGCUGGCGCCGGCUGGGCAACAUUCCGAGGGGACCGUCCCCUCGGUCAUGGCGAAUGGGACCCA, 0.0536.
Turning to GGCCGGCAUGGUCCCAGCCUCCUUGCUGGCGCCGGCUGGGCAACAUUCCGAGGGGACCGUCCCCUCGUUAAUGGCGAAUGGGACCCA, the self-cleavage turned out to be 0.891.
In the case of GGCCGGCAUGGUCCCAGCCUCCUCGAUGGCCCCGGCUGGGCAACAUUCCGAGGGGACCGUCCCCUCGGUAAUGGCGAAUGGGACCCA it was 0.453; in that of GGCCGGCAUGGUCCCAGCCUCAUCGCUGGCGCCGGCUGGGCAACAUUCAGAGGGGACCGUCCCCUCGGUAAUGGCGAAUGGGACCCA, 0.128.
In the case of GGCCGGCAUGGUCCCAGCCUCCUCGCUGGCGCCGGCUGGGAAACAUCCCGAGGGGACCGUCCCCUCGGUAAUGGCGAAUGGGACCCA it was 0.932; in that of GGCCGGCAUGGUCCCAGCCUCCUCGCUGGCGCCGGCUGGGCAACAUUCCGAGGGGACCGUCCCCUGGGUACUGGCGAAUGGGACCCA, 1.03; in that of GGCCGGCAUGGUCCGAGCCUCCUCGCUGGCGCCGGCUGGGCAACAUUCCGAGGUGACCGUCCCCUCGGUAAUGGCGAAUGGGACCCA, 0.59.
The figure for GGCCGGCAUGGUCCCAGCAUCCUCGCUGGCGCCGGCUGGGCAACAUUCCGAGGGGACCGUCCCCUCGGUAAAGGCGAAUGGGACCCA is 0.0504; for GGCCGGCAUGGUCCCGGCCUCCUCGCUGGCGCCGGCUGGGCAACAUUCCGAGGGGACCGUCCCCUCGGUAAUGGCGAAUGCGACCCA it is 0.369; for GGCCGGCAUGGUCCCAGCCUCCUCGCUGGCGCCGGCUGGGCAACAUUCCGAGGGGACCGUCCCCUCGGUAAUGGCGAUUGGGCCCCA it is 0.324.
For the variant GGCCGGCAUGGUCCCAGCCUCCUCGCUGGCGCCGGCUGGGCAGCAUUCCGAGGGGACGGUCCCCUCGGUAAUGGCGAAUGGGACCCA, the self-cleavage is 0.72.
In the case of GGCCGGCAUGGUCCCAUCCUCCUCGCUGGCGCCGGCUGGGCAACAUUCCGAGGGUACCGUCCCCUCGGUAAUGGCGAAUGGGACCCA it was 0.415; in that of GGCCGGCAUGGUCCCGGCCUCCUCGCUGGCGCCGGCUGGGUAACAUUCCGAGGGGACCGUCCCCUCGGUAAUGGCGAAUGGGACCCA, 1.22.
In the case of GGCCGGCAUGGUCCCAGCCUCCUCGCUGGCGCCGGCUGGGCGACAUUCCGAGGGGACCGUCCCCUCGGUGAUGGCGAAUGGGACCCA, the self-cleavage was 0.623.
In the case of GGCCGGCAUGGUCCCAGCCUCCUCGCUGGCGCCGGCUGGGCAACAUACCGAGGGGAGCGUCCCCUCGGUAAUGGCGAAUGGGACCCA it was 0.898; in that of GGCCGGCAUGGUCCCCGCUUCCUCGCUGGCGCCGGCUGGGCAACAUUCCGAGGGGACCGUCCCCUCGGUAAUGGCGAAUGGGACCCA, 0.266.
The figure for GGCCGGCAUGGUCCCAGCCUCCUCGCUGGCGCCAGCUGGGCAACAUUCCGAGGGGACCGUGCCCUCGGUAAUGGCGAAUGGGACCCA is 0.104.
The figure for GGCCGGCAUGGUCCCAGCCUCCUCGCUGGCGCCGGCUGGGCAACAUCCCGAGGGGAGCGUCCCCUCGGUAAUGGCGAAUGGGACCCA is 0.677; for GGCCGGCAUGGUCCCAGCCUCCUCGCUGGCGCCGGCUGGGCAACAUUCCGAGGGGACCGUCCCCUCGGUAAUAGUGAAUGGGACCCA it is 0.119.
